Laboratory results reported in patent US20260242419A1, “A CYCLIC PEPTIDE FOR TRAPPING INTERLEUKIN-1 BETA” (Merck Sharp & Dohme LLC, priority 2023, published 2026).
Starred links: 1 amine or outer side, 2 acyl side, 3 side chain; linkers in the order of their positions; H or OH if unused. Non-standard residues stand in square brackets, D forms with d. 3Pal4Ph4CO2H = 4-[5-[(2S)-2-amino-2-carboxy-ethyl]-2-pyridyl]benzoic acid, O=C([C@H](Cc1ccc(-c2ccc(C(=O)[*:3])cc2)nc1)N[*:1])[*:2]; dProc3CH2Pyrim = (2R,3S)-3-(pyrimidin-5-ylmethyl)pyrrolidine-2-carboxylic acid, O=C([C@H]1[C@@H](Cc2cncnc2)CCN1[*:1])[*:2]; TyrEtNAc = (2S)-3-[4-(2-acetamidoethoxy)phenyl]-2-amino-propanoic acid, CC(=O)NCCOc1ccc(C[C@H](N[*:1])C(=O)[*:2])cc1; dProc3Bn = (2R,3S)-3-benzylpyrrolidine-2-carboxylic acid, O=C([C@H]1[C@@H](Cc2ccccc2)CCN1[*:1])[*:2]; dProc4Bn = (2R,4R)-4-benzylpyrrolidine-2-carboxylic acid, O=C([C@H]1C[C@@H](Cc2ccccc2)CN1[*:1])[*:2]; Trp(βS-Me,4-F) = C[C@@H](c1c[nH]c2cccc(F)c12)[C@H](N)C(=O)O; 3Aminoazetidine3carboxyl = O=C(C1(N[*:1])CN([*:3])C1)[*:2]; Bip(4'-COOH) = N[C@@H](Cc1ccc(-c2ccc(C(=O)O)cc2)cc1)C(=O)O; Ala(1-bicyclo(1.1.1)pentyl) = N[C@@H](CC12CC(C1)C2)C(=O)O; dPro(4R-Bzl(4-F)) = O=C(O)[C@H]1C[C@@H](Cc2ccc(F)cc2)CN1; Ala(morpholin-4-yl) = N[C@@H](CN1CCOCC1)C(=O)O; Ala(pyrimidin-5-yl) = N[C@@H](Cc1cncnc1)C(=O)O; Phe(4-COOH) = N[C@@H](Cc1ccc(C(=O)O)cc1)C(=O)O; Pro(cis-4-F) = O=C(O)[C@@H]1C[C@H](F)CN1; 4Pal = N[C@@H](Cc1ccncc1)C(=O)O; d(αMeS) = C[C@@](N)(CO)C(=O)O; αMeS = C[C@](N)(CO)C(=O)O; Dab = NCC[C@H](N)C(=O)O; Aib = CC(C)(N)C(=O)O

B1: SEQ ID NO: 19 (peptide)
peptide: cyclo([Bip(4'-COOH)][4Pal][Phe(4-COOH)]G[Pro(cis-4-F)][Trp(βS-Me,4-F)][d(αMeS)]EW[Aib][Ala(pyrimidin-5-yl)]Q[Dab]G[dPro(4R-Bzl(4-F))])
SMILES: C[C@@H](c1c[nH]c2cccc(F)c12)[C@@H]1NC(=O)[C@@H]2C[C@H](F)CN2C(=O)CNC(=O)[C@H](Cc2ccc(C(=O)O)cc2)NC(=O)[C@H](Cc2ccncc2)NC(=O)[C@H](Cc2ccc(-c3ccc(C(=O)O)cc3)cc2)NC(=O)[C@H]2C[C@@H](Cc3ccc(F)cc3)CN2C(=O)CNC(=O)[C@H](CCN)NC(=O)[C@H](CCC(N)=O)NC(=O)[C@H](Cc2cncnc2)NC(=O)C(C)(C)NC(=O)[C@H](Cc2c[nH]c3ccccc23)NC(=O)[C@H](CCC(=O)O)NC(=O)[C@@](C)(CO)NC1=O
B2: SEQ ID NO: 2 (peptide)
peptide: cyclo([Bip(4'-COOH)][4Pal][Phe(4-COOH)]G[Pro(cis-4-F)][Trp(βS-Me,4-F)][Aib]EW[Aib][4Pal]Q[Dab]G[dPro(4R-Bzl(4-F))])
SMILES: C[C@@H](c1c[nH]c2cccc(F)c12)[C@@H]1NC(=O)[C@@H]2C[C@H](F)CN2C(=O)CNC(=O)[C@H](Cc2ccc(C(=O)O)cc2)NC(=O)[C@H](Cc2ccncc2)NC(=O)[C@H](Cc2ccc(-c3ccc(C(=O)O)cc3)cc2)NC(=O)[C@H]2C[C@@H](Cc3ccc(F)cc3)CN2C(=O)CNC(=O)[C@H](CCN)NC(=O)[C@H](CCC(N)=O)NC(=O)[C@H](Cc2ccncc2)NC(=O)C(C)(C)NC(=O)[C@H](Cc2c[nH]c3ccccc23)NC(=O)[C@H](CCC(=O)O)NC(=O)C(C)(C)NC1=O
B3: SEQ ID NO: 21 (peptide)
peptide: cyclo([Bip(4'-COOH)][4Pal][Phe(4-COOH)]G[Pro(cis-4-F)][Trp(βS-Me,4-F)][Aib]EW[3Aminoazetidine3carboxyl][Ala(pyrimidin-5-yl)]Q[Dab]G[dPro(4R-Bzl(4-F))])
SMILES: C[C@@H](c1c[nH]c2cccc(F)c12)[C@@H]1NC(=O)[C@@H]2C[C@H](F)CN2C(=O)CNC(=O)[C@H](Cc2ccc(C(=O)O)cc2)NC(=O)[C@H](Cc2ccncc2)NC(=O)[C@H](Cc2ccc(-c3ccc(C(=O)O)cc3)cc2)NC(=O)[C@H]2C[C@@H](Cc3ccc(F)cc3)CN2C(=O)CNC(=O)[C@H](CCN)NC(=O)[C@H](CCC(N)=O)NC(=O)[C@H](Cc2cncnc2)NC(=O)C2(CNC2)NC(=O)[C@H](Cc2c[nH]c3ccccc23)NC(=O)[C@H](CCC(=O)O)NC(=O)C(C)(C)NC1=O
B4: SEQ ID NO: 23 (peptide)
peptide: cyclo([Bip(4'-COOH)][4Pal][Phe(4-COOH)]G[Pro(cis-4-F)][Trp(βS-Me,4-F)][Aib]EW[d(αMeS)][Ala(pyrimidin-5-yl)]Q[Dab]G[dPro(4R-Bzl(4-F))])
SMILES: C[C@@H](c1c[nH]c2cccc(F)c12)[C@@H]1NC(=O)[C@@H]2C[C@H](F)CN2C(=O)CNC(=O)[C@H](Cc2ccc(C(=O)O)cc2)NC(=O)[C@H](Cc2ccncc2)NC(=O)[C@H](Cc2ccc(-c3ccc(C(=O)O)cc3)cc2)NC(=O)[C@H]2C[C@@H](Cc3ccc(F)cc3)CN2C(=O)CNC(=O)[C@H](CCN)NC(=O)[C@H](CCC(N)=O)NC(=O)[C@H](Cc2cncnc2)NC(=O)[C@@](C)(CO)NC(=O)[C@H](Cc2c[nH]c3ccccc23)NC(=O)[C@H](CCC(=O)O)NC(=O)C(C)(C)NC1=O
B5: SEQ ID NO: 24 (peptide)
peptide: cyclo([Bip(4'-COOH)][4Pal][Phe(4-COOH)]G[Pro(cis-4-F)][Trp(βS-Me,4-F)][Aib]EW[Aib][Ala(pyrimidin-5-yl)]Q[Ala(morpholin-4-yl)]G[dPro(4R-Bzl(4-F))])
SMILES: C[C@@H](c1c[nH]c2cccc(F)c12)[C@@H]1NC(=O)[C@@H]2C[C@H](F)CN2C(=O)CNC(=O)[C@H](Cc2ccc(C(=O)O)cc2)NC(=O)[C@H](Cc2ccncc2)NC(=O)[C@H](Cc2ccc(-c3ccc(C(=O)O)cc3)cc2)NC(=O)[C@H]2C[C@@H](Cc3ccc(F)cc3)CN2C(=O)CNC(=O)[C@H](CN2CCOCC2)NC(=O)[C@H](CCC(N)=O)NC(=O)[C@H](Cc2cncnc2)NC(=O)C(C)(C)NC(=O)[C@H](Cc2c[nH]c3ccccc23)NC(=O)[C@H](CCC(=O)O)NC(=O)C(C)(C)NC1=O
B6: SEQ ID NO: 25 (peptide)
peptide: cyclo([TyrEtNAc][Ala(1-bicyclo(1.1.1)pentyl)][Phe(4-COOH)]G[Pro(cis-4-F)][Trp(βS-Me,4-F)][Aib]EW[Aib][Ala(pyrimidin-5-yl)]Q[Dab]G[dPro(4R-Bzl(4-F))])
SMILES: CC(=O)NCCOc1ccc(C[C@@H]2NC(=O)[C@H]3C[C@@H](Cc4ccc(F)cc4)CN3C(=O)CNC(=O)[C@H](CCN)NC(=O)[C@H](CCC(N)=O)NC(=O)[C@H](Cc3cncnc3)NC(=O)C(C)(C)NC(=O)[C@H](Cc3c[nH]c4ccccc34)NC(=O)[C@H](CCC(=O)O)NC(=O)C(C)(C)NC(=O)[C@H]([C@@H](C)c3c[nH]c4cccc(F)c34)NC(=O)[C@@H]3C[C@H](F)CN3C(=O)CNC(=O)[C@H](Cc3ccc(C(=O)O)cc3)NC(=O)[C@H](CC34CC(C3)C4)NC2=O)cc1
B7: SEQ ID NO: 26 (peptide)
peptide: cyclo([3Pal4Ph4CO2H][4Pal][Phe(4-COOH)]G[Pro(cis-4-F)][Trp(βS-Me,4-F)][Aib]EW[Aib][Ala(pyrimidin-5-yl)]Q[Dab]G[dPro(4R-Bzl(4-F))])
SMILES: C[C@@H](c1c[nH]c2cccc(F)c12)[C@@H]1NC(=O)[C@@H]2C[C@H](F)CN2C(=O)CNC(=O)[C@H](Cc2ccc(C(=O)O)cc2)NC(=O)[C@H](Cc2ccncc2)NC(=O)[C@H](Cc2ccc(-c3ccc(C(=O)O)cc3)nc2)NC(=O)[C@H]2C[C@@H](Cc3ccc(F)cc3)CN2C(=O)CNC(=O)[C@H](CCN)NC(=O)[C@H](CCC(N)=O)NC(=O)[C@H](Cc2cncnc2)NC(=O)C(C)(C)NC(=O)[C@H](Cc2c[nH]c3ccccc23)NC(=O)[C@H](CCC(=O)O)NC(=O)C(C)(C)NC1=O
B8: SEQ ID NO: 27 (peptide)
peptide: cyclo([Bip(4'-COOH)][4Pal][Phe(4-COOH)]G[Pro(cis-4-F)][Trp(βS-Me,4-F)][Aib]EW[Aib]FQSG[dProc3CH2Pyrim])
SMILES: C[C@@H](c1c[nH]c2cccc(F)c12)[C@@H]1NC(=O)[C@@H]2C[C@H](F)CN2C(=O)CNC(=O)[C@H](Cc2ccc(C(=O)O)cc2)NC(=O)[C@H](Cc2ccncc2)NC(=O)[C@H](Cc2ccc(-c3ccc(C(=O)O)cc3)cc2)NC(=O)[C@H]2[C@@H](Cc3cncnc3)CCN2C(=O)CNC(=O)[C@H](CO)NC(=O)[C@H](CCC(N)=O)NC(=O)[C@H](Cc2ccccc2)NC(=O)C(C)(C)NC(=O)[C@H](Cc2c[nH]c3ccccc23)NC(=O)[C@H](CCC(=O)O)NC(=O)C(C)(C)NC1=O
B9: SEQ ID NO: 28 (peptide)
peptide: cyclo([Bip(4'-COOH)][4Pal][Phe(4-COOH)]G[Pro(cis-4-F)][Trp(βS-Me,4-F)][Aib]EW[Aib][Ala(pyrimidin-5-yl)]QSG[dProc3Bn])
SMILES: C[C@@H](c1c[nH]c2cccc(F)c12)[C@@H]1NC(=O)[C@@H]2C[C@H](F)CN2C(=O)CNC(=O)[C@H](Cc2ccc(C(=O)O)cc2)NC(=O)[C@H](Cc2ccncc2)NC(=O)[C@H](Cc2ccc(-c3ccc(C(=O)O)cc3)cc2)NC(=O)[C@H]2[C@@H](Cc3ccccc3)CCN2C(=O)CNC(=O)[C@H](CO)NC(=O)[C@H](CCC(N)=O)NC(=O)[C@H](Cc2cncnc2)NC(=O)C(C)(C)NC(=O)[C@H](Cc2c[nH]c3ccccc23)NC(=O)[C@H](CCC(=O)O)NC(=O)C(C)(C)NC1=O
B10: SEQ ID NO: 3 (peptide)
peptide: cyclo([Bip(4'-COOH)][4Pal][Phe(4-COOH)]G[Pro(cis-4-F)][Trp(βS-Me,4-F)][Aib]EW[Aib][Ala(pyrimidin-5-yl)]QSG[dPro(4R-Bzl(4-F))])
SMILES: C[C@@H](c1c[nH]c2cccc(F)c12)[C@@H]1NC(=O)[C@@H]2C[C@H](F)CN2C(=O)CNC(=O)[C@H](Cc2ccc(C(=O)O)cc2)NC(=O)[C@H](Cc2ccncc2)NC(=O)[C@H](Cc2ccc(-c3ccc(C(=O)O)cc3)cc2)NC(=O)[C@H]2C[C@@H](Cc3ccc(F)cc3)CN2C(=O)CNC(=O)[C@H](CO)NC(=O)[C@H](CCC(N)=O)NC(=O)[C@H](Cc2cncnc2)NC(=O)C(C)(C)NC(=O)[C@H](Cc2c[nH]c3ccccc23)NC(=O)[C@H](CCC(=O)O)NC(=O)C(C)(C)NC1=O
B11: SEQ ID NO: 30 (peptide)
peptide: cyclo([Bip(4'-COOH)][4Pal][Phe(4-COOH)]G[Pro(cis-4-F)][Trp(βS-Me,4-F)][Aib]EW[Aib][Ala(pyrimidin-5-yl)]QSG[dProc4Bn])
SMILES: C[C@@H](c1c[nH]c2cccc(F)c12)[C@@H]1NC(=O)[C@@H]2C[C@H](F)CN2C(=O)CNC(=O)[C@H](Cc2ccc(C(=O)O)cc2)NC(=O)[C@H](Cc2ccncc2)NC(=O)[C@H](Cc2ccc(-c3ccc(C(=O)O)cc3)cc2)NC(=O)[C@H]2C[C@@H](Cc3ccccc3)CN2C(=O)CNC(=O)[C@H](CO)NC(=O)[C@H](CCC(N)=O)NC(=O)[C@H](Cc2cncnc2)NC(=O)C(C)(C)NC(=O)[C@H](Cc2c[nH]c3ccccc23)NC(=O)[C@H](CCC(=O)O)NC(=O)C(C)(C)NC1=O

Target: Recombinant human IL-1β (BioLegend 579404) (human, UniProt P01584 117-269)
Assay: cell-based or functional assay

Which “MRC5 IC50” value does the source give for B1 here?
Its value is 21 pM.

For B2, which “MRC5 IC50” value is on record?
Its value is 23 pM.

For cyclo([Bip(4'-COOH)][4Pal][Phe(4-COOH)]G[Pro(cis-4-F)][Trp(βS-Me,4-F)][3Aminoazetidine3carboxyl]EW[Aib][Ala(pyrimidin-5-yl)]Q[Dab]G[dPro(4R-Bzl(4-F))]) [SEQ ID NO: 20], which “MRC5 IC50” value is on record?
Its value is 62 pM.

With B3 as the binder, how does the “MRC5 IC50” value read?
The value was 40 pM.

cyclo([Bip(4'-COOH)][4Pal][Phe(4-COOH)]G[Pro(cis-4-F)][Trp(βS-Me,4-F)][αMeS]EW[Aib][Ala(pyrimidin-5-yl)]Q[Dab]G[dPro(4R-Bzl(4-F))]) [SEQ ID NO: 22] was tested. Which “MRC5 IC50” value did it give?
The value was 27 pM.

How did the “MRC5 IC50” value turn out when B4 was run?
Its value is 18 pM.

Which “MRC5 IC50” value does the source give for B5 here?
The value was 49 pM.

With B6 as the binder, how does the “MRC5 IC50” value read?
Its value is 53 pM.

For B7, which “MRC5 IC50” value is on record?
Its value is 35 pM.

How did the “MRC5 IC50” value turn out when B8 was run?
Its value is 98 pM.

With B9 as the binder, how does the “MRC5 IC50” value read?
The value was 23 pM.

With cyclo([Bip(4'-COOH)][4Pal][Phe(4-COOH)]G[Pro(cis-4-F)][Trp(βS-Me,4-F)][Aib]EW[Aib][Ala(pyrimidin-5-yl)]Q[Dab]G[dProc3Bn]) [SEQ ID NO: 29] as the binder, how does the “MRC5 IC50” value read?
Its value is 19 pM.

How did the “MRC5 IC50” value turn out when B10 was run?
The value was 37 pM.

B11 was tested. Which “MRC5 IC50” value did it give?
Its value is 26 pM.
